Tests used:
[1] = biological target: T1, TNR-EGFL (Homo sapiens, UniProt Q92752); assay: Phage display panning (Ph.D-7 library), clones identified by ELISA and sequencing; format: binding; conditions: target TNR-EGFL, 3-4 rounds of affinity selection
T1 construct: GST; made in house
T1 sequence (Q92752 125-329): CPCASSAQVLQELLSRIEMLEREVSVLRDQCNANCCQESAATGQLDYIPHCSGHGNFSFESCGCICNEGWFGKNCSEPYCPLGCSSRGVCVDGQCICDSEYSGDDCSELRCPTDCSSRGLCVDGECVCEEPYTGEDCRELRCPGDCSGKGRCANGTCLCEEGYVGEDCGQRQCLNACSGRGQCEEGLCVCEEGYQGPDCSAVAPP
Protocol: (§1) Purification of TN-R, MAG and Nogo from adult mouse brains was performed by immumoaffinity chromatography as previously described (Pesheva, P et al, 1989). Generation and purification of the recombinant domains of TN-R, MAG, Nogo as fusion proteins with GST were performed as previously described (Xiao Z C et al, 1996). All these proteins were used as phage binding targets for rapid screening, using the Ph. D-7TM phage display peptide library kit (New England Biolabs, Ltd) according to the manufacturer's instructions.
(§2) Briefly, a library of phages, displaying different peptide sequences, was exposed to a plate coated with the target protein. Unbound phage was washed away and specifically bound phage was eluted by lowering pH. The eluted pool of phage was amplified, and the process was repeated 3-4 times.
(§3) The peptide-encoding sequences of the specific phage clones were determined by automated sequencing. The sequences of peptides which bound specifically to the targeted proteins were obtained.
(§4) Exemplary 7-mer peptide-endcoding sequences are shown below. “n” refers to the number of isolated phages displaying a peptide having the sequence shown (though there was of course some variability in the encoding nucleic acid sequences, owing to the degeneracy of the genetic code). “SIN” is an abbreviation for “SEQ ID NO.” and refers to the peptide sequence. The SEQ ID NOS of the nucleic acid sequences from the top to the bottom of the table are as follows: SEQ ID NO: 28, SEQ ID NO: 29, SEQ ID NO: 30, SEQ ID NO: 31, SEQ ID NO: 32, SEQ ID NO: 29, SEQ ID NO: 33. SEQ ID NO: 28, SEQ ID NO: 34, SEQ ID NO: 35.

[2] = biological target: T2, Nogo-66 (Homo sapiens, UniProt Q9NQC3); assay: as above; format: binding; set-up: GST; made in house; conditions: target Nogo-66, 3-4 rounds of affinity selection
T2 sequence (Q9NQC3 1055-1120): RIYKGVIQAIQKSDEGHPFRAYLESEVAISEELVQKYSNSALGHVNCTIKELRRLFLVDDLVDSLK
Protocol: as §1, §2, §3, §4

[3] = biological target: T3, MAG (Mus musculus, UniProt P20917); assay: as above; format: binding; conditions: target MAG, 3-4 rounds of affinity selection
T3 construct: from tissue; host or cells: adult mouse brain
T3 sequence (P20917 20-627): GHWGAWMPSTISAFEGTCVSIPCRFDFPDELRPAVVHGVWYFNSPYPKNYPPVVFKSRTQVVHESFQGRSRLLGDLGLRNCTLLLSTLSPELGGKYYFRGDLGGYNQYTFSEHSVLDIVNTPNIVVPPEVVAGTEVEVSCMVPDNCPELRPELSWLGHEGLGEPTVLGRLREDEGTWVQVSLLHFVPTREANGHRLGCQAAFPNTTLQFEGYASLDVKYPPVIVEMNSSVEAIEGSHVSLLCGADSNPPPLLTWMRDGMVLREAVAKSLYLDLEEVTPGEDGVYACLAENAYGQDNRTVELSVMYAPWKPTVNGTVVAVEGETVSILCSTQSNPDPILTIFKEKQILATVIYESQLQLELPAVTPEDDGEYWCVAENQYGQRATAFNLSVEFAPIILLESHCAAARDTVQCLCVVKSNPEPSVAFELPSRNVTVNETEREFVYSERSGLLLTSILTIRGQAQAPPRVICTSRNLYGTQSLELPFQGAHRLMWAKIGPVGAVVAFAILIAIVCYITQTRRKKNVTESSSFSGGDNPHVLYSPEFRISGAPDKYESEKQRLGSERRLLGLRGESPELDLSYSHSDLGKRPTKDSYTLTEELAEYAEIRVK
Protocol: as §1, §2, §3, §4

[4] = system: TNR-EGFL; assay: Phage blocking of the inhibitory effect on NG108 cell adhesion; format: cell-based; conditions: peptide displayed on phage, 24 hours
Protocol: (§5) NG108 cells were plated on poly-DL-ornithine-treated tissue culture petri dish as single-cell suspensions. Specific phages that display the Nogo66-, MAG- and TNR-binding peptides identified above were added to the cell culture. Cells were maintained for 24 hours before fixation and staining with toluidine blue. Cell adhesion was determined as previously described.

[5] = biological target: T3, MAG; assay: as above; format: cell-based; conditions: peptide displayed on phage, 24 hours
Protocol: as §5

[6] = biological target: T2, Nogo-66; assay: as above; format: cell-based; set-up: made in house; conditions: peptide displayed on phage, 24 hours
Protocol: as §5

[7] = system: NG108 cells; assay: Repulsion assay on coated Nogo domain substrates; format: cell-based, mouse neuroblastoma—rat glioma hybrid cells; conditions: GST as control
Protocol: NG108 cells (mouse neuroblastoma—rat glioma hybrid cells, commercially available from the American Tissue Type Culture Collection, Manassas, Va., USA, under accession number ATCC HB-12317) were plated on coated substrates using Nogol-25, Nogol-50, Nogol-66 and GST-Nogo-66 as well as GST as control. Generation and purification of the recombinant domains of Nogo, either alone or as fusion proteins with GST, were performed as previously described (Xiao Z C et al, 1996).

[8] = system: NG108 cells; assay: Neurite outgrowth assay on coated Nogo domain substrates; format: cell-based, mouse neuroblastoma—rat glioma hybrid cells; conditions: coated substrate, GST as control
Protocol: NG108 cells were plated on coated substrates using Nogol-25, Nogol-50, Nogol-66, and GST-Nogo-66 as well as GST as control.

[9] = system: NG108 cells; assay: Neuronal cell adhesion to protein spots on nitrocellulose-coated dishes; format: cell-based, mouse neuroblastoma—rat glioma hybrid cells; conditions: spots 5 μM GST-Nogo66, 100 μM Nogo66, Nogol-50, Nogol-25; 12 hours; p<0.05
Protocol: Tissue culture petri dishes (Becton Dickinson) with a diameter of 3.5 cm were coated with methanol-solubilized nitrocellulose according to Lagenaur and Lemmon (1987) and air-dried under a sterile hood. Then the petri dishes were incubated with PBS containing 5 μg/ml poly-DL-ornithine for 2 hours at 37° C. Subsequently, the dishes were washed three times with PBS and dried under a sterile hood.
Protein spots (1.5 μl of 5 μM GST, 5 μM GST-Nogo66, 100 μM Nogo66, 100 μM Nogol-50 or 100 μM Nogol-25) were applied to the nitrocellulose-coated surfaces of the petri dishes and incubated for 2 hours at 37° C. in a humidified atmosphere. Subsequently, the spots were washed three times with PBS. The dishes were then flooded with PBS containing 2% heat-inactivated fatty acid-free BSA (Sigma) and incubated overnight to block residual non-specific protein binding sites.
Then, the dishes were washed with PBS and NG108 cells were plated in 2 ml of Dulbecco's modified Eagle's medium containing 10% fetal bovine serum at a density of 2.5×10^5 cells/ml and incubated at 37° C. in a humidified atmosphere. After 12 hours, the dishes were gently washed three times with PBS and the cells fixed by flooding with PBS containing 2.5% glutaraldehyde. After fixation, cultures were stained with 0.5% toluidine blue (Sigma) in 2.5% sodium carbonate. […]
Cells adhering to the various spots were photographed and counted. […]

[10] = system: postnatal day 1 hippocampal neurons; conditions: coated protein; cited from earlier work

In the case of “GSLPHSL (From a phage library that displays random 7-mers)”, the “n, number of isolated phages displaying the peptide” value (“n, number” for short) [1] is reported as “GSLPHSL (n = 1)”, the “n, number” value [2] is reported as “GSLPHSL (n = 8)” and the “n, number” value ([2]; listed as SEQ ID NO. 2) is reported as 8.

In the case of “HHMPHDK (From a phage library that displays random 7-mers)”, the “n, number” value [1] is reported as “HHMPHDK (n = 1)” and the “n, number” value ([1]; listed as SEQ ID NO. 5) is reported as 1.

With “HSIPDNI (From a phage library that displays random 7-mers)” the “n, number” value [1] was “HSIPDNI (n = 3)” and the “n, number” value ([1]; listed as SEQ ID NO. 4) was 3.

For “QLPLMPR (From a phage library that displays random 7-mers)”, the “n, number” value [3] was “QLPLMPR (n = 5)” and the “n, number” value ([3]; listed as SEQ ID NO. 7) was 5.

With “TQLFPPQ (From a phage library that displays random 7-mers)” the “n, number” value [3] was “TQLFPPQ (n = 7)”, the “n, number” value [1] was “TQLFPPQ (n = 18)” and the “n, number” value ([1]; listed as SEQ ID NO. 3) was 18. For the same molecule, the “Block of the inhibitory effect of TNR-EGFL on NG108 cell binding” value [4] was “able to block” and the “Block of the inhibitory effect of TNR-EGFL on NG108 cell binding” value ([4]; listed as SEQ ID NO. 3) was “block”.

For “YLTQPQS (From a phage library that displays random 7-mers)”, the “n, number” value [3] was “YLTQPQS (n = 19)”, the “n, number” value ([3]; listed as SEQ ID NO. 1) was 19 and the “Block of the inhibitory effect of MAG on NG108 cell binding” value [5] was “able to block”. For the same molecule, the “Block of the inhibitory effect of MAG on NG108 cell binding” value ([5]; listed as SEQ ID NO. 1) was “block”, the “Block of the inhibitory effect of Nogo-66 on NG108 cell binding” value [6] was “able to block” and the “Block of the inhibitory effect of Nogo-66 on NG108 cell binding” value ([6]; listed as SEQ ID NO. 1) was “block”. The “n, number” value [2] was “YLTQPQS (n = 43)” and the “n, number” value ([2]; listed as SEQ ID NO. 1) was 43.

In the case of “YTTPPSP (From a phage library that displays random 7-mers)”, the “n, number” value [1] is reported as “YTTPPSP (n = 1)” and the “n, number” value ([1]; listed as SEQ ID NO. 6) is reported as 1.

B1: Nogol-66: recombinant domain of Nogo (66-residue extracellular domain) used as coated substrate (protein)
chain: RIYKGVIQAIQKSDEGHPFRAYLESEVAISEELVQKYSNSALGHVNCTIKELRRLFLVDDLVDSLK
modifications: not fully specified
notes: recombinant domain of Nogo (66-residue extracellular domain) used as coated substrate
In the case of B1, the “NG108 cells repelled from coated substrate” value [7] is reported as “repelled significantly”, the “Neurite outgrowth of NG108 cells inhibited” value [8] is reported as “inhibited significantly” and the “NG108 cell counts adhering to protein spot compared to GST” value [9] is reported as “significantly reduced”.

B2: GST-Nogo-66: recombinant Nogo-66 domain as fusion protein with GST (protein)
chain: RIYKGVIQAIQKSDEGHPFRAYLESEVAISEELVQKYSNSALGHVNCTIKELRRLFLVDDLVDSLK
modifications: also: fused to GST
notes: recombinant Nogo-66 domain as fusion protein with GST
In the case of B2, the “NG108 cells repelled from coated substrate” value [7] is reported as “repelled significantly”, the “Neurite outgrowth of NG108 cells inhibited” value [8] is reported as “inhibited significantly” and the “NG108 cell counts adhering to protein spot compared to GST” value [9] is reported as “significantly reduced”.

B3: rMAG: coated recombinant MAG (protein, UniProt P20916 20-626, looked up)
Myelin-associated glycoprotein: GHWGAWMPSSISAFEGTCVSIPCRFDFPDELRPAVVHGVWYFNSPYPKNYPPVVFKSRTQVVHESFQGRSRLLGDLGLRNCTLLLSNVSPELGGKYYFRGDLGGYNQYTFSEHSVLDIVNTPNIVVPPEVVAGTEVEVSCMVPDNCPELRPELSWLGHEGLGEPAVLGRLREDEGTWVQVSLLHFVPTREANGHRLGCQASFPNTTLQFEGYASMDVKYPPVIVEMNSSVEAIEGSHVSLLCGADSNPPPLLTWMRDGTVLREAVAESLLLELEEVTPAEDGVYACLAENAYGQDNRTVGLSVMYAPWKPTVNGTMVAVEGETVSILCSTQSNPDPILTIFKEKQILSTVIYESELQLELPAVSPEDDGEYWCVAENQYGQRATAFNLSVEFAPVLLLESHCAAARDTVQCLCVVKSNPEPSVAFELPSRNVTVNESEREFVYSERSGLVLTSILTLRGQAQAPPRVICTARNLYGAKSLELPFQGAHRLMWAKIGPVGAVVAFAILIAIVCYITQTRRKKNVTESPSFSAGDNPPVLFSSDFRISGAPEKYESERRLGSERRLLGLRGEPPELDLSYSHSDLGKRPTKDSYTLTEELAEYAEIRVK
For B3, the “Axonal growth cones collapsed” value [10] is listed as 60%.
